From paper PMC10487846

Legend:
[1] = target: recombinant wild type (wt) XptA2 (Xenorhabdus nematophilus); test: cryo-EM structure; single-particle cryo-EM of wt XptA2, pre-pore state; first map 7.2 Å, final map 3.1 Å (3.02 Å in the methods); 10 mM Tris, 100 mM NaCl, pH 7.5; C5 symmetry
[2] = target: seleno-methionine (SeMet) labeled XptA2 (Xenorhabdus nematophilus); test: crystal structure; SeMet XptA2 crystals grown in 0.1 M HEPES pH 7.5, 0.2 M NaCl, 16-20% PEG-3000; MR-SAD phasing with the 7 Å cryo-EM map; 3.1 Å; pre-pore state

Row | Substance | stoichiometry N [1] | stoichiometry N [2]
1 | recombinant wild type (wt) XptA2 | 5 | –
2 | seleno-methionine (SeMet) labeled XptA2 | – | 5
